Results as given in US20150010525A1, “Catalytic Tagging System to Study Macro-Molecular Interactions Using Engineered Ubiquitin Ligase and Ubiquitin-Like Proteins to Facilitate Substrate Identification” (THE REGENTS OF THE UNIVERSITY OF CALIFORNIA, priority 2012, published 2015).

Assays:
GST-XIAP = biological target: T1, GST-XIAP (Homo sapiens, UniProt P98170); assay: In vitro GST pull down; assay type: binding; details: recombinant proteins
T1 construct: made in house
Text: (§1) FIG. 12 illustrates the identification of the proteolytic form of PGAM5 as an XIAP and cIAP1 substrate in vitro. […] Overall, 15 unique peptides from PGAM5 were recovered and account for 43% of the entire protein sequence. (B) An example of LC-MS/MS spectrum from endogenous PGAM5 N-terminal peptide after subtiligase labeling and positive enrichment. A non-natural amino acid, 2-aminobutyric acid (Abu), is a designed tag showing characteristic labeling by subtiligase. (C) PGAM5 is cleaved into a truncated form in cells. Jurkat cells were transiently transfected with C-terminal Myc tagged full length PGAM5 or PGAM5 (Δ2-24). […] (D) N-terminal amino acid sequence alignment of PGAM5(Δ24) and other known evolutionarily conserved IBM sequences. Reaper, Hid, and Grim are Drosophila proteins that bind DIAP1, the Drosophila IAP. Amino acids are colored according to their chemical properties. (E) XIAP binds PGAM5(Δ24) but not the full length PGAM5. Recombinant GST fused XIAP, PGAM5(FL), and PGAM5(Δ24) were used for in vitro GST pull down experiments. (F) PGAM5(Δ24) binds to XIAP and cIAP1 independent of the RING domain. […] The resins were washed and proteins were eluted and analyzed with SDSPAGE and coomassie blue staining. […] The ubiquitination assay was performed in vitro and PGAM5 is detected with an anti-His antibody.

cIAP1 = biological target: T2, cIAP1 (Homo sapiens, UniProt P61081+Q13490); assay: SILAC mass spectrometry screen for cIAP1 substrates with NEDDylator^cIAP1 in apoptotic Jurkat cell lysate; assay type: biochemical; details: Light lysate with NEDDylator^cIAP1, Heavy lysate with Ubc12
T2 construct: cIAP1(ΔR) (residues 1-555); GST (N, cleaved yes); made in house; host or cells: E. coli BL21 (DE3)
Method: Jurkat cells were grown in media containing either light or heavy isotopes of lysine and arginine and induced to undergo apoptosis with STS. Light cell extracts were incubated with the respective catalytic tagging system for each of the two IAPs and the heavy extracts labeled only with the wild-type NEDD8 E2, Ubc12. […] 100 mg ^13C6^15N2 L-Lys.2HCl and 86 mg ^13C6 L-Arg.HCl (Cambridge Isotope) were added to the same amount of medium to generate the “Heavy” medium. Jurkat cells were cultured separately in “Light” or “Heavy” medium for 7 days to allow for thorough isotope incorporation. For IAP substrate identification, 400 million cells were treated with 2 μM STS for 4 hours, harvested, lysed in M-PER mammalian protein extraction buffer (Thermo/Pierce) in the presence of protease inhibitors (100× ProteoBlock cocktail, Fermentas) and mixed with cell lysate prepared from 400 million untreated cells. […] Purified NEDDylated proteins were trypsinized and analyzed with tandem mass spectrometry (LC-MS/MS).
For SILAC experiments, Jurkat cells were cultured separately in “Light” (supplemented with regular Lys and Arg) or “Heavy” (supplemented with ^13C6^15N2 Lys and ^13C6 Arg) medium for 7 days to allow for thorough isotope incorporation. Apoptotic “Light” and “Heavy” cell extracts were prepared individually. The lysates were cleared by spinning and then diluted in 50 mM HEPES pH 7.4, 150 mM NaCl to 5 mg/ml and supplemented with 5 mM ATP, 10 mM MgCl2. Endogenous NEDD8 E1 is cell lysate was used to catalyze the reaction. HB-NEDD8 was added to both lysate at mass ratio 1:500; the catalytic tagging system was added to the “Light” lysate at mass ratio 1:1000. Equal molar of Ubc12 was added to the “Heavy” lysate. […] NEDDylated proteins were separated by one-dimensional SDS-PAGE, and trypsinized for LC-MS/MS analysis.
For liquid chromatography—Tandem mass spectrometry (LC-MS/MS) analysis, the tryptic peptides were first desalted and concentrated with a C18 Ziptip (Millipore). LC-MS/MS was carried out by reverse phase LC interfaced with a LTQ-Orbitrap (ThermoFisher Scientific) hybrid mass spectrometer. A nanoflow HPLC (NanoAcquity UPLC system, Waters Corporation) was equipped with a trap column (180 μm×20 mm, 5 μm SymmetryC18, from Waters) and an analytical column (100 μm×100 mm, 1.7 μm BEH130C18, from Waters). Peptides were eluted over a linear gradient from 2% solvent A (0.1% formic acid in water) to 35% solvent B (0.1% formic acid in acetonitrile) at 350 nL/min over 35 min. MS and MS/MS spectra were acquired in a data-dependent mode with MS spectra acquired in the Orbitrap at 30,000 resolving power and 6 CID MS/MS spectra acquired per MS in the LTQ linear ion trap. Dynamic exclusion was set at 90 seconds to prevent repeated MS/MS on the same precursor ion.
The identified peptides were searched against a random decoy protein database for evaluating the false positive rates. […] The decoy peptides were removed from the data. Protein IDs were assigned only when at least two unique peptides were identified from the same protein. For SILAC experiment, Light/Heavy ratios for the identified peptides were calculated, using ProteinProspector. The media Light/Heavy ratios of all the peptides identified for each protein were used to represent the Light/Heavy ratio of the protein.

XIAP = XIAP (Homo sapiens, UniProt P98170); assay: In vitro PGAM5 ubiquitination assay with XIAP; assay type: biochemical; details: 50 nM UBE1, 200 nM UbcH5b, 700 nM XIAP, 1.5 μM PGAM5-His6
Text: as §1, with “antibody. […]” for “antibody.”

Sequence of XIAP (P98170 whole entry): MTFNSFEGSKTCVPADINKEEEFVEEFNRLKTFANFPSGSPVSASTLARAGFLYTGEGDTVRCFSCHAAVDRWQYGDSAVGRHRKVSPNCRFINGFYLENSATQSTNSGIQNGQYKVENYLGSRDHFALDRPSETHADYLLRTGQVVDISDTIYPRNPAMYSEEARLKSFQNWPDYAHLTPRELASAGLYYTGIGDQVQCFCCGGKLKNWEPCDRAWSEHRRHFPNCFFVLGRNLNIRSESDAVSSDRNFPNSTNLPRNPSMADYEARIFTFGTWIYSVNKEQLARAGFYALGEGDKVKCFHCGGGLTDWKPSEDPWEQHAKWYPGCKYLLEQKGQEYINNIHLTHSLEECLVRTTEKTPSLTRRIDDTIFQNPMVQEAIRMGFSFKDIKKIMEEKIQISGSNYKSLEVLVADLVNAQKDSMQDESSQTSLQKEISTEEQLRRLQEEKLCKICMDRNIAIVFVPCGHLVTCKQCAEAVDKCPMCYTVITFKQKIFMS
T1 sequence (P98170 whole entry): as above
T2 sequence (Q13490+P61081 fused): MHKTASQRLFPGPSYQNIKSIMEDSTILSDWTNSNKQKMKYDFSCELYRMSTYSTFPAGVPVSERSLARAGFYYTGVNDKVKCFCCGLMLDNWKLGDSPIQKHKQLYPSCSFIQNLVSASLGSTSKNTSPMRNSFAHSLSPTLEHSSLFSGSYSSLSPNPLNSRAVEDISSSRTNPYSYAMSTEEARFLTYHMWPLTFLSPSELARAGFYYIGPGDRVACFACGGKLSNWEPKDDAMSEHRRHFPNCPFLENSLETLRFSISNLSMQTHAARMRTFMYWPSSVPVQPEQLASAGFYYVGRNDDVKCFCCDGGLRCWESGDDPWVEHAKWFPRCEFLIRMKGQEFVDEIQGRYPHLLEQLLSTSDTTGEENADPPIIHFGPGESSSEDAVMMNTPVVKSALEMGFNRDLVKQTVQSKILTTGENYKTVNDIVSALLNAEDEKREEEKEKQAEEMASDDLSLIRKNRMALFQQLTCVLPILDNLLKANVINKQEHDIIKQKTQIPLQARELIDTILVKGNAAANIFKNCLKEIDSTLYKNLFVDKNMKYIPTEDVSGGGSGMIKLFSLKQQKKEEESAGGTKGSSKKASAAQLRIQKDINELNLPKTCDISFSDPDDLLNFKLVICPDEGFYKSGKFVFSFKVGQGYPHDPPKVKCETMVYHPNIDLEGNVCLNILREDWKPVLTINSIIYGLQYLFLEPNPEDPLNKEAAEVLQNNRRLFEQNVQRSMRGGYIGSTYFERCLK

L/H (Light/Heavy ratio) (cIAP1): 23.7
ubiquitination by XIAP (XIAP): not the full length protein
B1: Serine/threonine-protein phosphatase PGAM5, mitochondrial: phosphoglycerate mutase family member 5, dimeric protein phosphatase (protein, UniProt Q96HS1 1-289, looked up)
chain: MAFRQALQLAACGLAGGSAAVLFSAVAVGKPRAGGDAEPRPAEPPAWAGGARPGPGVWDPNWDRREPLSLINVRKRNVESGEEELASKLDHYKAKATRHIFLIRHSQYHVDGSLEKDRTLTPLGREQAELTGLRLASLGLKFNKIVHSSMTRAIETTDIISRHLPGVCKVSTDLLREGAPIEPDPPVSHWKPEAVQYYEDGARIEAAFRNYIHRADARQEEDSYEIFICHANVIRYIVCRALQFPPEGWLRLSLNNGSITHLVIRPNGRVALRTLGDTGFMPPDKITRS
modifications: full-length
notes: phosphoglycerate mutase family member 5, dimeric protein phosphatase
binding to XIAP (pull down) (GST-XIAP): not the full length PGAM5 was pulled down
